Results: US20110027909A1, “Chimera Compositions and Methods of Use” (priority 2009, published 2011)

How the values were obtained:
[1] = target: T1, CRF-BP(10 Kd)_CRFR2 chimera (Homo sapiens, UniProt P24387+Q13324); test: FLIPR intracellular calcium release, HEK 293 cells expressing CRF-BP(10 Kd)_CRFR2 chimera; type: cell-based
T1 construct: The CRF-BP (10 Kd) fragment is comprised of 88 amino acid residues (A235 to L322); DNA encoding the CRFR2 protein was amplified using the ssHA CRFR2_Zeo plasmid DNA template; FLAG (N); expressed in transfected cells
T1 sequence (P24387+Q13324 with tags, fused parts or gaps): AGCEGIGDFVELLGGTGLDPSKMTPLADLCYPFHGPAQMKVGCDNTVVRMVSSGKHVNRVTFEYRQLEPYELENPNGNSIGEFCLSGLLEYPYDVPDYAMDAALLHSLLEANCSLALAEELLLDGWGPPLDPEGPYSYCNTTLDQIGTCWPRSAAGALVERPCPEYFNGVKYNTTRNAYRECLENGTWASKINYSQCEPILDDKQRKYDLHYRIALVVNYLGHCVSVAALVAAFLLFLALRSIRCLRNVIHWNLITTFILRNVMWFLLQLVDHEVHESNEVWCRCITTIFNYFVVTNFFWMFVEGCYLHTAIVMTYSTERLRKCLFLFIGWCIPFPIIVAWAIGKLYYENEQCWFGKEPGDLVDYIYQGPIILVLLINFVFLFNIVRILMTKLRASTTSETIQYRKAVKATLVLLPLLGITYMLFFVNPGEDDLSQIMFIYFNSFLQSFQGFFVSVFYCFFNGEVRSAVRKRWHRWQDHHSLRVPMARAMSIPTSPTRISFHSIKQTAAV
Description: (§1) The mammalian cells expressing the isolated chimera constructs were tested for the ability of the chimera proteins to activate intracellular calcium release via signaling through Gq. HEK 293 cells of Example 2 expressing the constructs of Example 1 were grown in 10% FBS in DMEM cell media with hygromycin (0.4%) selection reagent. Cells were plated out in 96-well plates (40 000 cells/well) in FBS/DMEM media. On the following day, cells were serum starved (1% FBS in DMEM; 100 μl/well) for 2 hours prior to testing.
(§2) Cells were loaded with diluted FLIPR™ dye (100 μl) for one hour prior to testing with CRF. The selected hygromycin resistant cells were plated in 96-well clear bottom black microplates at a density of approximately 40,000 cells/well, in DMEM/10% FBS media. […]
(§3) A FlexStation (Molecular Devices) fluorometric imaging plate reader was used to measure changes in intracellular Ca^2+. […] The machine was used in Flex mode, and the fluorescent intensity was measured from the bottom with the excitation at 485 nm and emission at 525 nm for 120 seconds at 21° C.
Results are expressed as the mean (±SEM) relative fluorescent units (RFUs), calculated as agonist-induced maximum Ca^2+ peak/cell number×1000.

[2] = test system: untransfected HEK 293 cells; test: Negative control calcium release, HEK 293 cells not transfected; type: cell-based, human; conditions: FIG. 7
Description: (§4) As a negative control, the effect of CRF on HEK 293 cells that had not been transfected or which expressed a recombinant dopamine receptor was measured.

CRF-BP_NK1R chimera = target: T2, CRF-BP_NK1R chimera (Homo sapiens, UniProt P24387+P25103); test: FLIPR intracellular calcium release, HEK-293 cells expressing CRF-BP_NK1R chimera; type: cell-based; conditions: 1 pM-10 μM, FIGS. 9, 10
T2 construct: the construct used to create a CRF-BP(FL)_NK1R chimera; FLAG (N); expressed in transfected cells
T2 sequence (P24387+P25103 fused, change not shown): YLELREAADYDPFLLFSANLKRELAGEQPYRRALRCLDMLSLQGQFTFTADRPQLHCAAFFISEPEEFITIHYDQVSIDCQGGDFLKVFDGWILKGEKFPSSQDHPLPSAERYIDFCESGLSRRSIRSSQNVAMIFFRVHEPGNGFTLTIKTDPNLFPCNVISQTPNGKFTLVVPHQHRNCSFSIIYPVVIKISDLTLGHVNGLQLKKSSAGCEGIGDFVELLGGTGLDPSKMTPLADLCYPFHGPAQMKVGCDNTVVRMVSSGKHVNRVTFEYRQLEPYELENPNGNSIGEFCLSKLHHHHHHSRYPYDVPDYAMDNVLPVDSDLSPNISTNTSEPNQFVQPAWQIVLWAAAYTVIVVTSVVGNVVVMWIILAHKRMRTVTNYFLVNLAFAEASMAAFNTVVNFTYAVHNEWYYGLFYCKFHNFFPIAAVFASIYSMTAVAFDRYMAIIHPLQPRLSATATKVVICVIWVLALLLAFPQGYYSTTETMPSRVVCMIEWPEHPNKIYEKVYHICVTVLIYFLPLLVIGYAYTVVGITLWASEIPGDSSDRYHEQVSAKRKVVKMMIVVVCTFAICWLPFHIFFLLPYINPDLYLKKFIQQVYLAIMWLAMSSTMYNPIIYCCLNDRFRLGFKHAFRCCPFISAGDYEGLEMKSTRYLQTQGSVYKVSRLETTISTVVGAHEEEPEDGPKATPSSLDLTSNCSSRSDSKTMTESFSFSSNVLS
Description: The mammalian cells expressing the various isolated chimera constructs were tested for the ability of the chimera proteins to activate intracellular calcium release. The HEK-293 cells of Example 5 expressing the constructs of Example 4 were grown in 10% FBS in DMEM cell media with hygromycin (0.4%) as a selection reagent. Cells were plated out in 96-well plates (40 000 cells/well) in FBS/DMEM media. On the following day, cells were serum starved (1% FBS in DMEM; 100 μl/well) for 2 hours prior to testing.

CRF-BP(FL)_CRFR2 chimera = target: T3, CRF-BP(FL)_CRFR2 chimera (Homo sapiens, UniProt P24387+Q13324); test: FLIPR intracellular calcium release, agonist mode, HEK 293 cells expressing full-length CRF-BP_CRFR2 chimera; type: cell-based
T3 construct: DNA encoding the CRFR2 protein was amplified using the ssHA CRFR2_Zeo plasmid DNA template; FLAG (N); expressed in transfected cells
T3 sequence (P24387+Q13324 with tags, fused parts or gaps): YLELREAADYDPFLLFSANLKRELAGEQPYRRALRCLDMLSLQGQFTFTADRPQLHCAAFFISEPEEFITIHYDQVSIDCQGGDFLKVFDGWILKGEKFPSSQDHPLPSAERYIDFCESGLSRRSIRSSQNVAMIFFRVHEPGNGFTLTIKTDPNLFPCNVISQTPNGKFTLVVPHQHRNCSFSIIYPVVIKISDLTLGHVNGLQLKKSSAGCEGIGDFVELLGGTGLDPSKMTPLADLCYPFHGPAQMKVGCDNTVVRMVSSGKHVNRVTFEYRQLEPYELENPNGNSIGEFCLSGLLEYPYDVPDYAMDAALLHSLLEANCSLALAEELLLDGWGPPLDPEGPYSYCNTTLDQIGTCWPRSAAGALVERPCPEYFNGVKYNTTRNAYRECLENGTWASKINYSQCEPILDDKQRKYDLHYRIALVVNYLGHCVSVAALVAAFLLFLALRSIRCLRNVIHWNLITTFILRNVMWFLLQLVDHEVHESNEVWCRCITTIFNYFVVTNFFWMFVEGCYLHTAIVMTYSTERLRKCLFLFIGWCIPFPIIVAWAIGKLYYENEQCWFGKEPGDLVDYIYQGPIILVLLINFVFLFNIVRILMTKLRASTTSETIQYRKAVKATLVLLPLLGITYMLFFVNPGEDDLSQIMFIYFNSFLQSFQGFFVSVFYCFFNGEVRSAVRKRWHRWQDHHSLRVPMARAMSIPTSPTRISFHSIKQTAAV
Description: as §1, §2, §3
The results of the FLIPR experiments detecting the levels of intracellular calcium induced by activation of the chimera with CRF are shown in FIGS. 3-5. […] Results are expressed as the mean (±SEM) relative fluorescent units (RFU), calculated as agonist-induced maximum Ca^2+ peak/cell number×1000.

IGF-BP2_CRFR chimera = test: FLIPR intracellular calcium release, HEK-293 cells expressing IGF-BP2_CRFR2 chimera; type: cell-based, human; conditions: CRF 1 pM-10 μM, FIG. 13
Description: The mammalian cells expressing the various isolated chimera constructs were tested for the ability of the chimera proteins to activate intracellular calcium release. The HEK-293 cells expressing the constructs of Example 9 were grown in 10% FBS in DMEM cell media with hygromycin (0.4%) selection reagent. The cells were plated out in 96-well plates (40 000 cells/well) in FBS/DMEM media. On the following day, cells were serum starved (1% FBS in DMEM; 100 μl/well) for 2 hours prior to testing.
The cells were loaded with diluted FLIPR™ dye (100 μl) for one hour prior to testing with CRF. The selected hygromycin resistant cells were plated in 96-well clear bottom black microplates at a density of approximately 40,000 cells/well, in DMEM/10% FBS media. […]
as §3
The results of the FLIPR experiments detecting the levels of intracellular calcium induced by activation of the chimeras with CRF are shown in FIG. 13. […] Results are expressed as the mean (±SEM) relative fluorescence units (RFU), calculated as agonist-induced maximum Ca^2+ peak/cell number×1000.

[3] = test system: recombinant dopamine receptor; test: Negative control calcium release, HEK 293 cells expressing a recombinant dopamine receptor; type: cell-based; conditions: HEK 293 cells expressing recombinant dopamine receptor; FIG. 7
Description: as §4

[4] = CRF, intracellular calcium release

How did the “intracellular calcium release (RFU)” value ([1]; CRF 1 pM-10 μM, compared with full-length chimera, FIG. 6) turn out when Corticotropin Releasing Factor [CRF] was run?
The value was “even more robust signaling than the full-length CRF-BP_CRFR2 chimera”.

And the “signaling through the chimera compared with CRFR2 alone” value [1, 4]?
Its value is “more effectively than CRF at CRFR2 alone”.

What about the intracellular calcium signaling [2] of the same substance?
Its intracellular calcium signaling is “did not display any significant signaling”.

What about the “intracellular calcium release (RFU)” value (CRF-BP_NK1R chimera) of the same substance?
Its value is “different levels of CRF-induced (1 pM-10 μM) intracellular calcium release in the HEK-293 cells corresponding to the concentration of CRF”.

What about the “intracellular calcium release (agonist-induced maximum Ca2+ peak, RFU)” value (CRF-BP(FL)_CRFR2 chimera; 1 pM-10 μM, HEK 293 cells, FIGS. 3-5) of the same substance?
The value was “increased as the concentration of CRF was increased”.

And the “signaling through the chimera compared with CRFR2 alone” value (CRF-BP(FL)_CRFR2 chimera; [4])?
Its value is “more effectively than CRF at CRFR2 alone”.

What about the “intracellular calcium release (RFU)” value (IGF-BP2_CRFR chimera) of the same substance?
The value was “different levels of CRF-induced (1 pM-10 μM) intracellular calcium release in the HEK-293 cells corresponding to the concentration of CRF”.

What about the intracellular calcium signaling [3] of the same substance?
Its intracellular calcium signaling is “did not display any significant signaling”.
